Measured values as given in patent publication US20170275375A1 (published 2017).
Blank lines part the entries; values can stand above or below the binder they belong to.

How the values were obtained:
[1] = biological target: T1, human PD1 expressed on cells (activated Jurkat T cells; SpESFX-2D1 transfectants) (human, UniProt Q15116 25-288); experiment: binding to 2D1 cells transfected with human PD1
T1 construct: whole, on cells; Endogenous on stimulated Jurkat cells; transfected human PD1 on SpESFX-2D1; also called CD279; 2D1 cells
T1 sequence (Q15116 25-288): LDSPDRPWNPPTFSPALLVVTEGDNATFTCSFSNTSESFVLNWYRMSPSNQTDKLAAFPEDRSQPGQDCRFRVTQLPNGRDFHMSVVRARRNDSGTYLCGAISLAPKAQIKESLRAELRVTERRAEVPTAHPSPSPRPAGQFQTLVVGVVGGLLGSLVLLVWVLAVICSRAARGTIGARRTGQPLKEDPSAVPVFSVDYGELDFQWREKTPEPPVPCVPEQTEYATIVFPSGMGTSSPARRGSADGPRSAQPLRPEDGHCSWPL

[2] = biological target: T2, recombinant human PD1-His (human, UniProt Q15116 25-167, limits assumed); experiment: in vitro binding to recombinant human PD1-His (FIG. 32)
T2 construct: also called recombinant PD1-His; not shown: His tag
T2 sequence (Q15116 25-167 limits assumed): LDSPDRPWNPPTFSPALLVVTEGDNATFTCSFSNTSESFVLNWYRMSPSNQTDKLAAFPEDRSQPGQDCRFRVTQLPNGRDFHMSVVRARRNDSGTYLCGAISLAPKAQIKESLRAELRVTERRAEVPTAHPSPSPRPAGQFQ

- EC50 [1]: 0.168 µg/mL
- EC50 [2]: 0.072 nM
B1: 2G9 (IMMU-cPD1) (antibody, V domains shown)
VH: VKLQESGGGLVKPGGSLKLSCAASGFAFSSNDMSWVRQTPEKRLEWVATISGGGINTYYPDSVKGRFTISRDNARNTLDLQMSSLRSEDTALYYCARRSNYAWFAYWGQGTPVTVSA
VL: not shown
notes: also called chimeric anti-PD1; chimeric version of 5G9

- EC50 [1]: 0.568 µg/mL
B2: humanized anti-PD1 antibody version 5 (V5) (antibody, V domains shown)
VH: QVQLVESGGGLVKPGGSLRLSCAASGFAFSSNDMSWVRQAPGKGLEWVATISGGGINTYYPDSVKGRFTISRDNAKNTLYLQMNSLRAEDTAVYYCARRSNYAWFAYWGQGTPVTVSA
VL: DIQLTQSPASLAVSLGQRATISCRASESVDTYGISFMNWFQQKPGQPPKLLISPNQGSGVPARFSGSGSGTDFTLTINSLEAEDTAVYFCQQSKEVPWTFGGGTKLEIK
notes: V5 is V4 with a putative light-chain N-glycosylation site removed; also called hPD1 v5; hPD1 (v5)
